Measurements taken from patent publication US5705154, “Humanized monoclonal antibodies against human interleukin-4” (Schering Corporation, dated 1998).
Values joined by “and” are separate entries in the source; they are usually repeats but may differ in a detail not shown here. Equal entries are not always repeated.

Legend:
human interleukin-4 [1] = molecular target: T1, human interleukin-4 (human, UniProt P05112, radioiodinated (125I, IODOGEN method) in the binding and competition assays; unlabelled in the reporter gene assay); experiment: plate competition assay at room temperature; free antibody against immobilized 25D2 as competitor for 125I-hIL-4
Procedure: (§1) Immunosorb plates were coated with a 60 ng/ml solution of the rat 25D2 antibody diluted in PBS (100 μl/well) for at least 16 hours at 4° C. The wells were then blocked with Blocking buffer (3% BSA in PBS) for 4 hours at room temperature. Fifty microliters of 2-fold serially diluted competing antibodies plus the appropriate amount of ^125I-hIL-4 ([…] total volume) were added to each well, and the plates were incubated at room temperature for 16–24 hours. The plates were washed 3 times with potassium phosphate, pH 7.4, plus 0.05% Tween 20. The wells were aspirated dry, and 75 μl of Solubilization buffer (0.1N NaOH/1% SDS) was added to each well and incubated for 30 minutes at room temperature. The solution was removed from each well and counted in an LKB gamma counter.
To further characterize humanized antibody variants h25D2-1 and h25D2-4, competitive binding assays with the humanized antibodies and rat antibody 25D2 were performed as described above.

human interleukin-4 [2] = molecular target: T1, human interleukin-4
human interleukin-4 [3] = molecular target: T1, human interleukin-4; experiment: inhibition of 125I-hIL-4 binding to the human IL-4 receptor on Jijoye CJ cells, 4 C
Procedure: The humanized antibodies were assayed for the ability to inhibit the binding of radiolabelled hIL-4 to the recombinant human IL-4 receptor expressed on Jijoye CJ cells in microtiter plates. Briefly, the humanized antibodies were serially diluted in cell growth medium at protein concentrations of from 8.6 nM to 4 pM. Rat antibody 25D2 was similarly diluted and used as a positive control. Jijoye CJ cells (10^5 cells) and 44 pM ^125I-hIL-4 were then added to each well (200 μl final volume per well) and the plates were incubated for 2 hours at 4° C.
Humanized antibodies h25D2-1 and h25D2-4 antibodies were assayed as described above for the ability to inhibit binding of radiolabeled hIL-4 to recombinant hIL-4 receptors expressed on the Jijoye CJ cell line.

human interleukin-4 [4] = molecular target: T1, human interleukin-4; experiment: plate competition assay at room temperature (about 22 C); free antibody against immobilized 25D2 as competitor for 125I-hIL-4
Procedure: as §1
A plate competition assay was carried out as described above using ^125I-hIL-4, immobilized rat antibody 25D2, and varying levels of free antibodies 25D2, h25D2-1 or h25D2-9.

human interleukin-4 [5] = molecular target: T1, human interleukin-4; remark: listed apart in the source
human interleukin-4 [6] = molecular target: T1, human interleukin-4; experiment: apparent Kd, Scatchard analysis; antibody from COS conditioned medium captured on anti-human IgG4 Fc plates, 125I-hIL-4, room temperature
Procedure: The wells were washed and incubated with ^125I-hIL-4 at concentrations between 4,000 and 2 pM in final volumes of 100 μl. All assays were performed in triplicate, and the background binding was determined by using a 1000-fold molar excess of unlabelled hIL4 in control wells. After incubation for 2 hours at room temperature, the wells were washed, the protein was solubilized in 75 μl of Solubilization buffer [0.1N NaOH/1% sodium dodecylsulfate (SDS)], and the solution was counted in an LKB gamma counter. Concentrations of bound and free hIL4 were determined, and the affinities of the antibodies were determined by Scatchard plot analysis [Berzofsky et al., in *Fundamental Immunology*, 1984, Paul, E. E., Ed., Raven Press, N.Y., N.Y., pp. 595–644].
All five variants of the humanized heavy chain gene were independently co-transfected into COS 7 cells with the pKM20 light chain vector. The serum-free conditioned medium was harvested after 72 hours and concentrated.

human interleukin-4 [7] = molecular target: T1, human interleukin-4; experiment: apparent Kd, Scatchard analysis; purified antibody captured on anti-rat IgG Fc plates, 125I-hIL-4, room temperature

| fold less effective than antibody 25D2 in competition (human interleukin-4 [1]) [fold] | IC50, inhibition of human growth hormone expression under the germline epsilon promoter in Jijoye C12 cells with 1 ng/mL hIL-4 (human interleukin-4 [2]) [nM] | IC50 (human interleukin-4 [3]) | concentration for fifty percent inhibition relative to antibody h25D2-9 (human interleukin-4 [4]) [fold] | concentration for fifty percent inhibition in the germline epsilon reporter assay, Jijoye C12 cells (FIG. 3), against 25D2 and h25D2-9 (human interleukin-4 [5]) [fold] | Kd (human interleukin-4 [6]) [nM] | Kd (human interleukin-4 [7]) [nM] | Binder |
| --- | --- | --- | --- | --- | --- | --- | --- |
| 3 | 0.12 | 0.5 nM and 1 nM | 2 | 5 | 4 | – | humanized antibody h25D2-1 (antibody, V domains shown) VH: EVQLLESGGGLVQPGGSLRLSCAASGFSFRSYWMTWVRQAPGKGLEWVASISISGDNTYYPDSVRGRFTISRNDSKNTLYLQMNGLQAEVSAIYYCARDPYYFSGHYFDFWGQGTLVTVSS VL: DIQMTQSPSSLSVSVGDRVTITCKASQNIYKNLAWYQQKPGLAPKLLIYNAKSLETGVPSRFSGSGSGTDFTFTISSLQPEDIATYYCQQYYSGWTFGQGTKVEVKR |
| – | 0.02 to 0.04 | 0.5 to 1 nM and 1 nM | – | – | – | 1 | rat monoclonal antibody 25D2 (antibody, V domains shown) VH: ELQLVESGGGLVQPGRSLKLSCVASGFSFRSYWMTWVRQAPGKGLEWIASISISGDNTYYPDSVRGRFTISRDDAKSILYLQMNSLRSEDTATYYCVRDPYYFSGHYFDFWGQGVMVTVSS VL: DIQMTQSPSLLSASVGDRVTLNCKASQNIYKNLAWYQQKLGEAPKFLIFNAKSLETGVPSRFSGSGSGTDFTLTISSLQPEDVATYFCQQYYSGWTFGGGTKLELKR |
